Test results taken from patent publication US20070092942.
Changes are numbered by the printed parent chain. In names and notes the source's numbering stands.

B1: EBV205 (protein)
chain: MSNGDWGQSQRTRGTGPVRGIRTMDVNAPGGGSGGSALRILGTASCNQAHCKFGRFAGIQCVSNCVLYLVKSFLAGRPLTSRPELDEVLDEGARLDALMRQSGILKGHEMAQLTDVPSSVVLRGGGRVHIYRSAEIFGLVLFPAQIANSAVVQSLAEVLHGSYNGVAQFILYICDIYAGAIIIETDGSFYLFDPHCQKDAAPGTP
B2: EBV205 C61A (protein)
chain: B1 chain with C61A
B3: His6UL36^USP (protein)
chain: MGGGNNTNPGGPVHKQAGSLASRAHMIAGTPPHSTMERGGDRDIVVTGARNQFAPDLEPGGSVSCMRSSLSFLSLIFDVGPRDVLSAEAIEGCLVEGGEWTRATAGPGPPRMCSIVELPNFLEYPGARGGLRCVFSRVYGEVGFFGEPAAGLLETQCPAHTFFAGPWALRPLSYTLLTIGPLGMGLFRDGDTAYLFDPHGLPEGTPAFIAKVRAGDMYPYLTYYTRDRPDVRWAGAMVFFVPSGPEPAAPADLTAAALHLYGASETYLQDEAFSERRVAITHPLRGEIAGLGEPCVGVGPREGVGGPGPHPPTAAQSPPPTRARRDDRASETSRGTAGPSAKPEAKRPNRAPDDVWAVALKGTPPTDPPSADPPSADPPSAIPPPPPSAPKTPAAEAAEEDDDDMRVLEMGVVPVGRHRARYSAGLPKRRRPTWTPPSSVEDLTSGEKTKRSAPPAKTKKKSTPKGKTPVGAAVPASVPEPVLASAPPDPAGPPVAEAGEDDGPTVPASSQALEALKTRRSPEPPGADLAQLF

Legend:
[1] = biological target: Ub C-terminal 7-amido-4-methylcoumarin, P0CG47
Sequence of Ub C-terminal 7-amido-4-methylcoumarin, P0CG47 (P0CG47 whole entry, looked up): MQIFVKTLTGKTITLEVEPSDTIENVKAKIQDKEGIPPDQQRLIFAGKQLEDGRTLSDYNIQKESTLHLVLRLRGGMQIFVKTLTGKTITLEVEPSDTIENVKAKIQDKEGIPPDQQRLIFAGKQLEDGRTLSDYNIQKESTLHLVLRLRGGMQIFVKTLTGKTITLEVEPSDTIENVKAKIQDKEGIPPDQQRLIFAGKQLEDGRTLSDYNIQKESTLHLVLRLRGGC

[2] = biological target: His-tagged Lys^48-linked polyubiquitin, P0CG47
Sequence of His-tagged Lys^48-linked polyubiquitin, P0CG47 (P0CG47 whole entry, looked up): as above

[3] = biological target: His-tagged Lys^63-linked polyubiquitin, P0CG47
Sequence of His-tagged Lys^63-linked polyubiquitin, P0CG47 (P0CG47 whole entry, looked up): as above

[4] = biological target: isopeptide-linked ISG15-peptide conjugate, P05161
Sequence of isopeptide-linked ISG15-peptide conjugate, P05161 (P05161 1-157): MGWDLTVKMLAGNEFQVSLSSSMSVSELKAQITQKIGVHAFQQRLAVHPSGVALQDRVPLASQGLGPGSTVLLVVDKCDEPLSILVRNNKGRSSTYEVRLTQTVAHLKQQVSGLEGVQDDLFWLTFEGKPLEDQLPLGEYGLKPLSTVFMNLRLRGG

[5] = biological target: isopeptide-linked Nedd8-peptide conjugate, Q15843
Sequence of isopeptide-linked Nedd8-peptide conjugate, Q15843 (Q15843 whole entry, looked up, tested part not stated): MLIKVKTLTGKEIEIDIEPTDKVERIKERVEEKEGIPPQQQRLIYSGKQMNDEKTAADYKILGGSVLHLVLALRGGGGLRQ

[6] = biological target: isopeptide-linked SUMO-1-peptide conjugate, P63165
Sequence of isopeptide-linked SUMO-1-peptide conjugate, P63165 (P63165 1-97): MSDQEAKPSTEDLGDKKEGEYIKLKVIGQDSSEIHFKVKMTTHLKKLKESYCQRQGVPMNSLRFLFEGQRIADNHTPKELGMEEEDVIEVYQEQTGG

[7] = biological target: isopeptide-linked Ub-peptide conjugate, P0CG47
Sequence of isopeptide-linked Ub-peptide conjugate, P0CG47 (P0CG47 whole entry, looked up, tested part not stated): as the sequence (P0CG47 whole entry, looked up) above

| Protein | UbAMC hydrolysis [1] | polyubiquitin chain depolymerization, anti-His immunoblot [2] | polyubiquitin chain depolymerization, anti-His immunoblot [3] | Ub-AMC cleavage, turnover number [1] [min⁻¹] | isopeptidase assay, loss of biotin signal [4] | isopeptidase assay, loss of biotin signal [5] | isopeptidase assay, loss of biotin signal [6] | isopeptidase assay, loss of biotin signal [7] |
| --- | --- | --- | --- | --- | --- | --- | --- | --- |
| B1 | efficiently hydrolyzed UbAMC | – | – | – | – | – | – | – |
| B2 | absent in the case of active site mutants | – | – | – | – | – | – | – |
| B3 | – | we observed deubiquitination of Lys^48-linked polyUb only | The failure of UL36^USP to cleave Lys^63-linked polyUb | ~6 | Isopeptide-linked conjugates of Nedd8, ISG15 or SUMO-1 are not substrates for UL36^USP | Isopeptide-linked conjugates of Nedd8, ISG15 or SUMO-1 are not substrates for UL36^USP | Isopeptide-linked conjugates of Nedd8, ISG15 or SUMO-1 are not substrates for UL36^USP | results in cleavage of the Ub-peptide conjugate only |
